Drawing on paper PMC6009930, “Allosteric inhibition of carnosinase (CN1) by inducing a conformational shift” (Journal of Enzyme Inhibition and Medicinal Chemistry, 2017), this text covers Km and Vmax for one protein.

Substrate in the data set: NCCC(=O)N[C@@H](Cc1cnc[nH]1)C(=O)O
In words: OPA fluorescence assay of liberated histidine, Michaelis-Menten fit. It counts as biochemical, Homo sapiens. To be noted: pH 7, control without thiol. An excerpt: OPA fluorescence assay of liberated histidine, Michaelis-Menten fit on recombinant CN1 (rCN1)

B1: recombinant CN1 (rCN1) (Homo sapiens) (protein)
chain: SSPSPPPALLEKVFQYIDLHQDEFVQTLKEWVAIESDSVQPVPRFRQELFRMMAVAADTLQRLGARVASVDMGPQQLPDGQSLPIPPVILAELGSDPTKGTVCFYGHLDVQPADRGDGWLTDPYVLTEVDGKLYGRGATDNKGPVLAWINAVSAFRALEQDLPVNIKFIIEGMEEAGSVALEELVEKEKDRFFSGVDYIVISDNLWISQRKPAITYGTRGNSYFMVEVKCRDQDFHSGTFGGILHEPMADLVALLGSLVDSSGHILVPGIYDEVVPLTEEEINTYKAIHLDLEEYRNSSRVEKFLFDTKEEILMHLWRYPSLSIHGIEGAFDEPGTKTVIPGRVIGKFSIRLVPHMNVSAVEKQVTRHLEDVFSKRNSSNKMVVSMTLGLHPWIANIDDTQYLAAKRAIRTVFGTEPDMIRDGSTIPIAKMFQEIVHKSVVLIPLGAVDDGEHSQNEKINRWNYIEGTKLFAAFFLEMAQLH
notes: FLAG-tagged, secreted by transfected CHO cells, purified from supernatant; homodimer in vitro; dinuclear Zn site
What is called Km is the concentration of substrate that gives half-maximal velocity. The Vmax is the top rate of the reaction or transport when substrate is in excess. Consider B1, for which the Km is given as 0.8 ± 0.1 mM and the Vmax is 0.07 µmol/min/mg.
